Laboratory results as given in patent US20070014776A1, “Identification of adiponutrin-related proteins as esterases and methods of use for the same” (priority 2005, published 2007).

Assays:
[1] = tested on: 3T3-L1 adipocytes; assay: Effect of adiponutrin overexpression on 3T3-L1 lipase activity (free fatty acid and glycerol release); assay type: cell-based, mouse
Description: For adenovirus infection, 3T3-L1 cells were cultured in DMEM with 10% FBS at 37° C. with 5% CO2. Two days after the cultures were confluent, the cells were induced to differentiate (defined as day 0) by incubation in DMEM supplemented with 10% FBS, 1 μM dexamethasone (Sigma, St. Louis, Mo.), 0.5 mM isobutylmethylxanthine (Sigma) (MIX), and 1 μg/ml insulin (Sigma). After two days, the medium was replaced with DMEM supplemented with 10% FBS and 1 μg/ml insulin, and cells were then fed every 2 days with the same medium. At day 8 of differentiation, cells grown in 24-well plates were incubated with 500 MOI of adenovirus in OPTI-MEM (Invitrogen, Carlsbad, Calif.) for 2 hours and then DMEM with 10% FBS. After 48 hours, cells were incubated with DMEM with no serum overnight. The next day, cells were washed three times with PBS and incubated with PBS with 2% fatty acid-free BSA (Sigma, St. Louis, Mo.) with 10 μM or 100 nM of isoproterenol (Sigma). When needed, cells were preincubated with 100 nM insulin 30 min prior to isoproterenol treatment. Conditioned medium was taken at the indicated 0-4 hours after isoproterenol treatment and analyzed for free fatty acids and glycerol. Free fatty acids release was measured by using a NEFA-c kit (Wako Chemicals, Richmond, Va.) and glycerol release was measured by using a lipolysis kit (Zen-bio, Research Triangle Park, N.C.).

[2] = tested on: HEK293 cells; assay: [1-14C]-oleic acid incorporation into triglyceride in transfected HEK293 cells; assay type: cell-based; details: overexpression in HEK293 cells; for intracellular triglycerides: compared to control cells (empty vector), FIG. 7
Description: HEK293 cells were cultured in Dulbecco's modified Eagle's medium (DMEM) that contained 10% FBS at 37° C. with 5% CO2. HEK293 cells grown in 12-well plates to 60-70% confluence were transfected with 0.5 μg of human adiponutrin, desnutrin/ATGL, GS2, or GS2-like expression vector using FuGene (Roche). Empty vector, pADORI1.2 was used as a control. After 48 hours, cells were treated with 4 μM [1-^14C]-oleic acid (204 μCi/ml total; Perkin Elmer) and 16 μM cold oleic acid (Sigma) in serum-free DMEM. After 4 hours, cells were washed twice and incubated further with DMEM with 10% FBS. After 16 hours, lipids were extracted and separated by TLC using hexane/ether/acetic acid (80:20:1). Radioactive lipids were detected and quantitated by Molecular Imager FX (Bio-Rad).

[3] = Lipase assay with DGGR substrate on immunoprecipitated V5-tagged proteins; assay type: biochemical; details: V5-tagged WT vs patatin-like domain mutant (Ser of GXSXG to Ala); FIG. 6
Description: HEK293 cells were grown in DMEM media supplemented with 10% fetal calf serum at 37° C. in an atmosphere of 5% CO2. Ten cm tissue culture dishes with 90% confluent HEK293 cells were transfected using Lipofectamine 2000 according to the manufacturer's instructions (Invitrogen, Carlsbad, Calif.). Ten μg of plasmid DNA containing the following expression constructs were used: GFP, human adiponutrin, human adiponutrin-c-term-V5, human desnutrin/ATGL-c-term-V5-6His, human GS2-c-term-V5, human GS2-like-c-term-V5-6His, and patatin-like domain mutants of c-term-V5 and c-term-V5-6His tagged constructs. Three days post-transfection, cells were washed with ice cold TBS and harvested. Cells were pelleted by centrifugation at 1000×g for 5 minutes. Supernatant was discarded, and pellets stored at −80° C. until used for assays.
Frozen cells, as described above, were resuspended in 1 ml of lipase reaction buffer (20 mM Tris-HCl, pH 8.0, 150 mM NaCl, 0.53% sodium taurodeoxycholate, 1.33 mM CaCl2) containing complete mini-protein inhibitor tablets (Invitrogen, Carlsbad, Calif.; 1 tablet per 7 ml). The resulting suspensions were then sonicated on ice with 4 bursts of 10 seconds from a probe sonicator. Homogenized lysate was then centrifuged at 1000×g for 10 minutes to remove cell debris. A 50 μl aliquot of the resulting lysate was saved for analysis and the remaining lysate was used for the immunoprecipitation. Anti-V5 mouse monoclonal antibody (7.2 μg; Invitrogen, Carlsbad, Calif.) was added to each lysate and then placed at 4° C. overnight with tumbling. Next, 20 μl of protein-A beads (Repligen) was added to each sample and tumbled at 4° C. for 2 hours. Beads were then pelleted with gentle centrifugation and […] of supernatant was saved for analysis. The beads were washed 4 times with 900 μl of lipase reaction buffer followed by resuspension in 100 μl of lipase reaction buffer.
The lipase assay (Lehner and Verger (1997) Biochemistry 36:1861-68) uses 1,2-o-dilauryl-rac-glycero-3-glutaric acid-(6′-methylresorufin) ester (DGGR) as substrate. DGGR is cleaved by lipase, resulting in an unstable dicarbonic acid ester that is spontaneously hydrolyzed to yield glutaric acid and methylresorufin, a bluish-purple chromophore with peak absorption at 581 nm. The rate of methylresorufin formation is directly proportional to the lipase activity in the sample. Ten μl of whole cell lysate or IP beads were added to the wells of a 96-well plate. After diluting the samples up to 125 μl in lipase reaction buffer, 125 μl of reaction buffer containing DGGR (final concentration 36 μg/ml in a final assay volume of 250 μl per well). After mixing, OD 581 was monitored at 5 minute intervals for 2 hours to assess lipase activity. Lipase activity is plotted as delta-OD 581/sec. […]

[4] = adenoviral overexpression in 3T3-L1 adipocytes, after treatment with 10 μM isoproterenol, vs GFP, FIG. 8

isoproterenol-stimulated lipolysis ([1]; submaximal isoproterenol, preincubation with 100 nM insulin, FIG. 9) | rate of lipid hydrolysis, wild-type versus active-site serine to alanine mutant [3] | release of free fatty acids into the medium [1, 4] | release of glycerol into the medium [1, 4] | basal lipolysis ([1]; adenoviral overexpression in 3T3-L1 adipocytes, no isoproterenol, FIG. 9) | inhibition of lipolysis by insulin ([1]; adenoviral overexpression in 3T3-L1 adipocytes, submaximal isoproterenol plus insulin, FIG. 9) | Molecule | intracellular triglycerides [2] | triglyceride incorporation ([2]; in several experiments (data not shown))
decreased |  |  |  |  |  | insulin [reference compound] |  | 
 | significantly higher |  |  |  |  | GS2: human GS2 protein, SEQ ID NO:8; adiponutrin family member (protein, listed as Homo sapiens) MKHINLSFAACGFLGIYHLGAASALCRHGKKLVKDVKAFAGASAGSLVASVLLTAPEKIEECNQFTYKFAEEIRRQSFGAVTPGYDFMARLRSGMESILPPSAHELAQNRLHVSITNAKTRENHLVSTFSSREDLIKVLLASSFVPIYAGLKLVEYKGQKWVDGGLTNALPILPVGRTVTISPFSGRLDISPQDKGQLDLYVNIAKQDIMLSLANLVRLNQALFPPSKRKMESLYQCGFDDTVKFLLKENWFE | decreased intracellular triglycerides significantly | 
 | significantly higher |  |  |  |  | desnutrin/ATGL: human desnutrin/adipocyte triglyceride lipase protein, SEQ ID NO:5 (protein, listed as Homo sapiens) MFPREKTWNISFAGCGFLGVYYVGVASCLREHAPFLVANATHIYGASAGALTATALVTGVCLGEAGAKFIEVSKEARKRFLGPLHPSFNLVKIIRSFLLKVLPADSHEHASGRLGISLTRVSDGENVIISHFNSKDELIQANVCSGFIPVYCGLIPPSLQGVRYVDGGISDNLPLYELKNTITVSPFSGESDICPQDSSTNIHELRVTNTSIQFNLRNLYRLSKALFPPEPLVLREMCKQGYRDGLRFLQRNGLLNRPNPLLALPPARPHGPEDKDQAVESAQAEDYSQLPGEDHILEHLPARLNEALLEACVEPTDLLTTLSNMLPVRLATAMMVPYTLPLESALSFTIRLLEWLPDVPEDIRWMKEQTGSICQYLVMRAKRKLGRHLPSRLPEQVELRRVQSLPSVPLSCAAYREALPGWMRNNLSLGDALAKWEECQRQLLLGLFCTNVAFPPEALRMRAPADPAPAPADPASPQHQPAGPAPLLSTPAPEARPVIGALGL | significant decrease | 
 | significantly higher | significantly decreased | significantly decreased | no effect | significantly enhanced | adiponutrin: human adiponutrin protein, SEQ ID NO:2; patatin-like domain protein of the adiponutrin family, expressed recombinantly (protein, listed as Homo sapiens) MYDAERGWSLSFAGCGFLGFYHVGATRCLSEHAPHLLRDARMLFGASAGALHCVGVLSGIPLEQTLQVLSDLVRKARSRNIGIFHPSFNLSKFLRQGLGKCLPANVHQLISGKIGISLTRVSDGENVLVSDFRSKDEVVDALVCSCFMPFYSGLIPPSFRGVRYVDGGVSDNVPFIDAKTTITVSPFYGEYDICPKVKSTNFLHVDITKLSLRLCTGNLYLLSRAFVPPDLKVLGEICLRGYLDAFRFLEEKGICNRPQPGLKSSSEGMDPEVAMPSWANMSLDSSPESAALAVRLEGDELLDHLRLSILPWDESILDTLSPRLATALSEEMKDKGGYMSKICNLLPIRIMSYVMLPCTLPVESAIAIVQRLVTWLPDMPDDVLWLQWVTSQVFTRVLMCLLPASRSQMPVSSQQASPCTPEQDWPCWTPCSPEGCPAETKAEATPRSILRSSLNFFLGNKVPAGAEGLSTFPSFSLEKSL | unable to demonstrate a decrease | trend toward increased triglyceride incorporation
 | not affected |  |  |  |  | GS2-like: human GS2-like protein, SEQ ID NO:11; adiponutrin family member (protein, listed as Homo sapiens) MGFLEEEGRWNLSFSGAGYLGAHHVGATECLRQRAPRLLQGARRIYGSSSGALNAVSIVCGKSVDFCCSHLLGMVGQLERLSLSILHPAYAPIEHVKQQLQDALPPDAHVLASQRLGISLTRWPDGRNFLVTDFATCDELIQALVCTLYFPFYCGLIPPEFRGERYIDGALSNNLPFADCPSTITVSPFHGTVDICPQSTSPNLHELNVFNFSFQISTENFFLGLICLIPPSLEVVADNCRQGYLDALRFLERRGLTKEPVLWTLVSKEPPAPADGNWDAGCDQRWKGGLSLNWKVPHVQVKDVPNFEQLSPELEAALKKACTRDPSRWARFWHSGPGQVLTYLLLPCTLPFEYIYFRSRRLVVWLPDVPADLWWMQGLLRNMALEVFSRTKAQLLGPISPPATRVLETSPLQPQIAPHREELGPTHQA | decreased intracellular triglycerides significantly | 
